From US20090041755A1, “Methods and Compositions For PDGF-D Activation and Inhibition” (Ludwig Institute For Cancer Research, priority 2005, published 2009)

Key:
[1] = target: latent PDGF-CC (Homo sapiens, UniProt Q9NRA1); settings: cited from earlier work
[2] = target: chimeric PDGF-D/PDGF-C molecule with CUB domain from PDGF-D and growth factor domain from PDGF-C (UniProt Q9GZP0)
[3] = target: chimeric PDGF-C/PDGF-D molecule with CUB domain from PDGF-C and growth factor domain from PDGF-D (UniProt Q9NRA1)
Chain of chimeric PDGF-C/PDGF-D molecule with CUB domain from PDGF-C and growth factor domain from PDGF-D (Q9NRA1 whole entry, looked up, change not shown, the tested form may be a part): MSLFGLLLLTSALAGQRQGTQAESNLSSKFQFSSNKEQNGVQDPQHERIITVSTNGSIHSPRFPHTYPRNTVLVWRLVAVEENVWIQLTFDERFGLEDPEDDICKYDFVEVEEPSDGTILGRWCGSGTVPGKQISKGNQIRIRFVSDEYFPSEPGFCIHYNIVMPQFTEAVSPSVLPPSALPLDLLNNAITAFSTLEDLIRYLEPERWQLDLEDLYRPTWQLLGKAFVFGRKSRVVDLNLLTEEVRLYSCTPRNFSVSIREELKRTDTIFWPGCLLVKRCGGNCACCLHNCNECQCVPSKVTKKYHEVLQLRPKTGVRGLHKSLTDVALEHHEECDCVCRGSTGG

Chain of latent PDGF-CC (Q9NRA1 23-345): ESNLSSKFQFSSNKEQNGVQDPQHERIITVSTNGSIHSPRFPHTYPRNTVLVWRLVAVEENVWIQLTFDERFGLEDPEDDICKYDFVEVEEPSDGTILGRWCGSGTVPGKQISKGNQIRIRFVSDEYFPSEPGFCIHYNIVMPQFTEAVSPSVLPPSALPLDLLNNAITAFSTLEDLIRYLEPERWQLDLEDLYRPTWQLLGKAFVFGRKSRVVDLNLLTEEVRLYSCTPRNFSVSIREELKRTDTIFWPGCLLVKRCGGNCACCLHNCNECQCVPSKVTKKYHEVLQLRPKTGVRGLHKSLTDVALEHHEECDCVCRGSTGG
Chain of chimeric PDGF-D/PDGF-C molecule with CUB domain from PDGF-D and growth factor domain from PDGF-C (Q9GZP0 other isoform, or with tags, fused parts or gaps mutant): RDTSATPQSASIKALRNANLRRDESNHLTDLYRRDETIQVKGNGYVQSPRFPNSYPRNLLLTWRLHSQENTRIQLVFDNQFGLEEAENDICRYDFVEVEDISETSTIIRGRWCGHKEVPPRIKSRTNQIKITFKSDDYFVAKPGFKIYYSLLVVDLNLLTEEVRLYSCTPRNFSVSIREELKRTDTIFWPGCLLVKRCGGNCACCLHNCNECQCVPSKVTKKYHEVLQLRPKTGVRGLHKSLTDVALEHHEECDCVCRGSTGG

Substance	activation of latent PDGF-CC ([1]; Fredriksson et al. 2004)	substrate specificity of the protease ([1]; PDGF-CC versus PDGF-DD)	proteolytic release of the growth factor domain (co-transfection, SDS-PAGE and immunoblot) [2]	proteolytic release of the growth factor domain (co-transfection, SDS-PAGE and immunoblot) [3]
tPA: tissue plasminogen activator, specific activator of PDGF-CC	activates latent PDGF-CC	specific for PDGF-CC	–	–
urokinase plasminogen activator (uPA)	–	–	Analysis of all the PDGF-D/PDGF-C chimeric molecules revealed that no released growth factor domain could be visualized using specific antibodies	Analysis of all the PDGF-D/PDGF-C chimeric molecules revealed that no released growth factor domain could be visualized using specific antibodies
